The target of this test is T1, nYFP-GEF1 (UniProt Q93ZY2 1-548).
T1 construct: BiFC positive control partner; also called RopGEF1; not shown: N-terminal YFP fragment (nYFP) from BiFC vector pSPYNE173
T1 sequence (looked up): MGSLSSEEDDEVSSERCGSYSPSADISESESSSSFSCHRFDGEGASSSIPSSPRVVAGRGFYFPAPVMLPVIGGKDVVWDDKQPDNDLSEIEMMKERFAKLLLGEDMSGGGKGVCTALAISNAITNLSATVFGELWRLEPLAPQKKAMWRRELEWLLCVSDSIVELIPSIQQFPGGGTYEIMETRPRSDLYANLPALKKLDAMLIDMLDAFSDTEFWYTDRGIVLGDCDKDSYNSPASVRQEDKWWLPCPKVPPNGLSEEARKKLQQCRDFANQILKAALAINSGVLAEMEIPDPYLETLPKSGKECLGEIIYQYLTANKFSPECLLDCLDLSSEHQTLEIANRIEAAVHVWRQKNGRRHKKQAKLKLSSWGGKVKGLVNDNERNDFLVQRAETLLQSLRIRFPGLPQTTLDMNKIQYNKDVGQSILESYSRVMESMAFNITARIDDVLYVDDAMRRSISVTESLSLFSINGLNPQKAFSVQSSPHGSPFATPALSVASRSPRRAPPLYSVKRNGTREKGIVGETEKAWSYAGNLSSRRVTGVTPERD
Briefly: BiFC in Nicotiana benthamiana leaves, positive control. As to the method:
a, Co-immunoprecipitation experiments using transiently expressed M3Kδ6 and OST1/SnRK2.6 in Arabidopsis mesophyll cell protoplasts. OST1/SnRK2.6-GFP or GFP control co-expressed with M3Kδ6-FLAG were immunoprecipitated with GFP antibodies. Precipitated proteins were analyzed by immunoblots using GFP or FLAG antibody. b and c, BiFC analyses of nYFP-M3Kδ6 (b) or nYFP-M3Kδ7 (c) with OST1/SnRK2.6-cYFP, SnRK2.2-cYFP, 2.4-cYFP and 2.10-cYFP infiltrated in 6-week-old Nicotiana benthamiana leaves. nYFP-GEF1/cYFP-ABI1 combination was used as a positive control. All images are at the same scale. Scale bars=50 μm. d and e, BiFC quantifications measured from maximal projections of z-stacks and normalized over an infiltration control expressing p19 only. BiFC quantifications were analyzed by one-way ANOVA followed by Tukey's tests. Confocal images were acquired using identical settings for each BiFC experiment. Means±s.e.m. (n=45).

Experimental findings from patent US20220154204A1 (University of California, published 2022) are described below.

B1: cYFP-ABI1 (enzyme, UniProt P49597 1-434, looked up)
chain: MEEVSPAIAGPFRPFSETQMDFTGIRLGKGYCNNQYSNQDSENGDLMVSLPETSSCSVSGSHGSESRKVLISRINSPNLNMKESAAADIVVVDISAGDEINGSDITSEKKMISRTESRSLFEFKSVPLYGFTSICGRRPEMEDAVSTIPRFLQSSSGSMLDGRFDPQSAAHFFGVYDGHGGSQVANYCRERMHLALAEEIAKEKPMLCDGDTWLEKWKKALFNSFLRVDSEIESVAPETVGSTSVVAVVFPSHIFVANCGDSRAVLCRGKTALPLSVDHKPDREDEAARIEAAGGKVIQWNGARVFGVLAMSRSIGDRYLKPSIIPDPEVTAVKRVKEDDCLILASDGVWDVMTDEEACEMARKRILLWHKKNAVAGDASLLADERRKEGKDPAAMSAAEYLSKLAIQRGSKDNISVVVVDLKPRRKLKSKPLN
notes: BiFC positive control partner; order of tag and protein as the printed name gives it; not shown: C-terminal YFP fragment (cYFP) from BiFC vector pSPYCE(M)
Take B1: the binding result was “binds”.
